# Measurements taken from patent US20200261603A1 (published 2020).
# Where two headings read alike, the source gives them in different places.
# Legend:
# [1] = target: T1, human cancer-specific MUC1 (human, UniProt P15941 24-1255, cancer-specific incomplete O-glycosylation (T, Tn, 2,3ST) of threonine at position 9 of the 20-amino acid tandem repeat … (SEQ ID NO: 15), as the background describes it); assay: Cell ELISA
# [2] = target: T1, human cancer-specific MUC1; assay: Cell ELISA; remark: listed apart in the source
Binder,Kd [1] [pM],Kd [2] [pM]
"P10-1 Fab (Fab, V domains shown) VH: QVQLVQSGAEVKKPGASVKVSCKASGYTFTNYGLSWVRQAPGQGLEWMGENHPGSGIIYHNEKFRGRVTLTADRSTSTAYMELSSLRSEDTAVYYCARSSGTRGFAYWGQGTLVTVSS VL: DVVMTQTPLSLSVTPGQPASISCRSSQSIVHSNGNTYLEWYLQKPGQSPQLLIYRVSNRFSGVPDRFSGSGSGTDFTLKISRVEAEDVGVYYCFQGSHGPWTFGQGTKLEIKR",350,–
"P10-2 Fab (Fab, V domains shown, heavy chain N-terminal glutamine was modified into pyroglutamic acid in a great majority of purified antibodies) VH: QVQLVQSGAEVKKPGASVKVSCKASGYTFTNYGLSWVRQAPGQGLEWMGENHPGSGIIYHNEKFRGRVTLTADRSTSTAYMELSSLRSEDTAVYYCARSSGTRGFDYWGQGTLVTVSS VL: DVVMTQTPLSLSVTPGQPASISCRSSQSIVHSNGNTYLEWYLQKPGQSPQLLIYRVSNRFSGVPDRFSGSGSGTDFTLKISRVEAEDVGVYYCFQGSHGPWTFGQGTKLEIKR",290,370
"P10-2 Fab DFO (Fab, V domains shown, p-SCN-Bn-deferoxamine on Lys of the Fab fragment; number and positions not stated; p-SCN-Bn-deferoxamine on Lys of the Fab fragment; number and positions not stated; N-terminal glutamine largely pyroglutamic acid) VH: QVQLVQSGAEVKKPGASVKVSCKASGYTFTNYGLSWVRQAPGQGLEWMGENHPGSGIIYHNEKFRGRVTLTADRSTSTAYMELSSLRSEDTAVYYCARSSGTRGFDYWGQGTLVTVSS VL: DVVMTQTPLSLSVTPGQPASISCRSSQSIVHSNGNTYLEWYLQKPGQSPQLLIYRVSNRFSGVPDRFSGSGSGTDFTLKISRVEAEDVGVYYCFQGSHGPWTFGQGTKLEIKR",–,360
"P10-1 Fab Dye (Fab, V domains shown, IRDye800CW (NHS ester) on Lys of the Fab fragment; number and positions not stated) VH: QVQLVQSGAEVKKPGASVKVSCKASGYTFTNYGLSWVRQAPGQGLEWMGENHPGSGIIYHNEKFRGRVTLTADRSTSTAYMELSSLRSEDTAVYYCARSSGTRGFAYWGQGTLVTVSS VL: DVVMTQTPLSLSVTPGQPASISCRSSQSIVHSNGNTYLEWYLQKPGQSPQLLIYRVSNRFSGVPDRFSGSGSGTDFTLKISRVEAEDVGVYYCFQGSHGPWTFGQGTKLEIKR",660,–
"P10-2 Fab Dye (Fab, V domains shown, IRDye800CW (NHS ester) on Lys of the Fab fragment; number and positions not stated; IRDye800CW (NHS ester) on Lys of the Fab fragment; number and positions not stated; N-terminal glutamine largely pyroglutamic acid) VH: QVQLVQSGAEVKKPGASVKVSCKASGYTFTNYGLSWVRQAPGQGLEWMGENHPGSGIIYHNEKFRGRVTLTADRSTSTAYMELSSLRSEDTAVYYCARSSGTRGFDYWGQGTLVTVSS VL: DVVMTQTPLSLSVTPGQPASISCRSSQSIVHSNGNTYLEWYLQKPGQSPQLLIYRVSNRFSGVPDRFSGSGSGTDFTLKISRVEAEDVGVYYCFQGSHGPWTFGQGTKLEIKR",490,–
